Data reported in PMC8176726.

Experiments:
[1] = test system: His6-CssR (Corynebacterium glutamicum RES167); experiment: EMSA; conditions: apparent KD; EMSA: 10 mM Tris-HCl pH 7.4, 5 mM MgCl2, 50 mM KCl, 5% glycerol, 0.1% NP40, 1 ug poly(dI:dC), 0.5 mM EDTA, 20 ng DNA in 20 ul, room temperature 30 min
[2] = test system: T1, His6-CssR (Corynebacterium glutamicum RES167), ORF:46f2a94e; experiment: EMSA; conditions: EMSA: 10 mM Tris-HCl pH 7.4, 5 mM MgCl2, 50 mM KCl, 5% glycerol, 0.1% NP40, 1 ug poly(dI:dC), 0.5 mM EDTA, 20 ng DNA in 20 ul, room temperature 30 min
T1 sequence: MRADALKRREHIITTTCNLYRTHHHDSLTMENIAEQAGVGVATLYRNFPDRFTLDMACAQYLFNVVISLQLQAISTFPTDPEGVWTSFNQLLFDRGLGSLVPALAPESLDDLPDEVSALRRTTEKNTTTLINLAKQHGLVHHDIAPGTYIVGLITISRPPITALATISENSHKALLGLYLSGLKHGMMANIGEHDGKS

[3] = test system: T1, His6-CssR (Corynebacterium glutamicum RES167), ORF:46f2a94e; experiment: DNase I footprinting; conditions: EMSA: 10 mM Tris-HCl pH 7.4, 5 mM MgCl2, 50 mM KCl, 5% glycerol, 0.1% NP40, 1 ug poly(dI:dC), 0.5 mM EDTA, 20 ng DNA in 20 ul, room temperature 30 min
[4] = biological target: His6-CssR (C. glutamicum stress-sensing regulator, NCgl1578) (Corynebacterium glutamicum RES167); experiment: SEC; Superdex 75 10/300 GL, 50 mM potassium phosphate pH 7.4, 0.15 M NaCl; calibrated with a low molecular weight gel filtration kit (Kav versus log molecular weight); native mass 52 kDa

| Substance | binding [2] | also measured |
| --- | --- | --- |
| 131-bp PcssR | – | Kd [1]: 17 nM |
| AACACCGCGAATTATAGACTGAACTGGTACTTGGGAAGCTTTTTATAGTCATATGCGTTGAGATACGTGGACGACAAAGCACCAGTTAGTTGCCTTCCCAGTCCAGCCCACATCCGATTTCTAAATTAGGAGCACATC (double strand) [mtr promoter] | no binding | – |
| CGTAATTATTTCCGCGACAAGCTATTTGCAAGCTATGTGCAGGCTCATTGCACAAGTTCAGCGCGGAGACACGTCCTAAAAAATACTTATGAAATTATGTTCGACACCGAAATGTCACCTGAAACTTCAACCAAGCCGCCAGTGCACCTATTCCACAAACCAAAAAATCCGCCAACACGAATGCGGCGGATTTTTAAGATGTACAGG (double strand) [mshC promoter] | no binding | – |
| CGTTTTAGTGCGTCTGCTCTCATGTTGTTGTCCTCTAGTTGACAGCGGGGGTGGTGGTGGTCCTAAAATAGCCTACGATAACTGATAGTGTTTCCTCCACTTACGGAAGAAGATACATGAATACCCCTCTTTTGAGAAGCTCTGGGCTCTCCATCCGCGACACACCCTTCGCCGATGTTGAGATAGCTCCAGACAGCGGACTCAC (double strand) [PcssR footprint fragment] | – | binding [3]: binds |
| GAAGTTTTTCAAAGTGTCTGACGTTGAAAACGGTGAGTTCACAACTAGGGTGAATGGTGCACGTGATGCTGCACTTTTACGTTTACTACTTTGAGGGAAAC (double strand) [trx promoter] | no binding | – |
| GATCACCGCATGTGAAACAAGCGGATACGCAATGAGCATCCCCCACGCCCACTGCACATTAAACACCCAATTCAACACCGCAAAACCCACCAAAAACAGCAGCGTCGCGATCACACAAGCAGCGTCAGATCTTTGCGGCATAGCGCCATC (double strand) [mrx1 promoter] | no binding | – |
| GGTATTGGGCGCATGCCATGTCCAGTGTGAAGCGATCGGGGAAGTTTCGGTATAAAGTTGCAACACCCACTCCTGCCTGTTCTGCAATGTTTTCCATGGTGAGCGAATCGTGATGGTGTGTGCGGTAGAG (double strand) [131-bp cssR coding region control] | no binding | – |
| GTTGTTGTCCTCTAGTTGACAGCGGGGGTGGTGGTGGTCCTAAAATAGCCTACGATAACTGATAGTGTTTCCTCCACTTACGGAAGAAGATACATGAATACCCCTCTTTTGAGAAGCTCTGGGCTCTCCAT (double strand) [131-bp PcssR] | binds | Kd [2]: 17 nM |
| His6-CssR (C. glutamicum stress-sensing regulator, NCgl1578) (natural protein) | – | stoichiometry N [4]: 2 |
